These results are taken from patent US20180334499A1 (Pieris, published 2018).

The target of the experiment is T1, recombinant human Ang-2 (human, UniProt O15123 19-496, limits assumed).
T1 construct: also called hAng-2; human angiopoietin-2
T1 sequence (looked up): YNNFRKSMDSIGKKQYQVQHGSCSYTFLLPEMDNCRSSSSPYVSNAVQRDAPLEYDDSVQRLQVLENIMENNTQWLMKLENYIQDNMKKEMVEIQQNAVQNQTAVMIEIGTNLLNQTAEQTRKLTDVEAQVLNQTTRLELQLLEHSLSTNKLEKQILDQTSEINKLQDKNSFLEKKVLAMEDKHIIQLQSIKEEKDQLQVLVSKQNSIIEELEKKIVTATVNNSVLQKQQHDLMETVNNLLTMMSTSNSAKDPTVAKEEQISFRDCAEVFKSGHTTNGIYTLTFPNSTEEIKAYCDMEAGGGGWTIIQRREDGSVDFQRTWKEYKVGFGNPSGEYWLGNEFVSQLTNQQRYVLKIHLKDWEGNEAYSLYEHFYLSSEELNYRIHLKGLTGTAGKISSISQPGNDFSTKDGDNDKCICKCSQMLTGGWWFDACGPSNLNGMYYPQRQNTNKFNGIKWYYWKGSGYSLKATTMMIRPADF
Kind of experiment: ELISA, recombinant human Ang-2 coated, detection with anti-human IgG Fc-HRP or anti-lipocalin-HRP, signal normalised (RU %). The procedure:
Bound agents under study were detected via an anti-human-IgG-Fc antibody or anti-lipocalin antibody as described in Example 3. The data was fit with a 1:1 binding model with EC50 value and the maximum signal as free parameters, and a slope that was fixed to unity.
The target was dissolved in PBS (5 μg/mL) and coated overnight on microtiter plates at 4° C. The plate was washed after each incubation step with 80 μL PBS-T five times. The plates were blocked with 2% BSA (w/v) in PBS for 1 h at room temperature and subsequently washed. […] Bound agents under study were detected after incubation for 1 h at room temperature with 1:1000 diluted anti-lipocalin antibody conjugated to HRP in PBS-T or 1:5000 diluted anti-human IgG Fc-HRP (#109-035-098, Jackson […]) in PBS-T. After an additional wash step, fluorogenic HRP substrate (QuantaBlu, Thermo) was added to each well and the fluorescence intensity was detected using a fluorescence microplate reader.
In general terms: ELISA stands for enzyme-linked immunosorbent assay.

B1: lipocalin mutein of SEQ ID NO: 2 (designed binder)
chain: QDSTSDLIPAPPLSKVPLQQNFQDNQFHGKWYVVGQAGNYILREDKDPGKMWATIYELKEDKSYDVTEVSFGAKKCNYRIWTFVPGSQPGEFTLGGIKSDPGGTSTLVRVVSTNYNQHAMVFFKHVLQNREFFEITLYGRTKELTSELKENFIRFSKSLGLPENHIVFPVPIDQCIDG
notes: hNGAL mutein specific for Ang-2, tested in monomeric form; also called positive control lipocalin mutein; Ang-2-specific lipocalin mutein in monomeric form
For the molecule B1, the “EC50 (read off the curve)” value is roughly 0.4 nM.

B2: lipocalin mutein of SEQ ID NO: 3 (designed binder)
chain: QDSTSDLIPAPPLSKVPLQQNFQDNQFHGKWYVVGHAGNYILREDKDPGKMWATIYELKEDKSYDVTEVSFGPKKCNYRIWTFVPGSQPGEFTLGGIKSPPGGTSTLVRVVSTNYNQHAMVFFKHVLQNREFFEITLYGRTKELTSELKENFIRFSKSLGLPENHIVFPVPIDQCIDG
notes: as for B1
Take B2: the “EC50 (read off the curve)” value is roughly 0.6 nM.

B3: SEQ ID NO: 1 negative control (other)
chain: QDSTSDLIPAPPLSKVPLQQNFQDNQFQGKWYVVGLAGNAILREDKDPQKMYATIYELKEDKSYNVTSVLFRKKKCDYWIRTFVPGCQPGEFTLGNIKSYPGLTSYLVRVVSTNYNQHAMVFFKKVSQNREYFKITLYGRTKELTSELKENFIRFSKSLGLPENHIVFPVPIDQCIDG
notes: Lipocalin negative control; also called mature hNGAL
Turning to B3, the binding result is given as “no binding (tested: 100 nM)”.

As usually defined, the EC50 (read off the curve) is the concentration at which the effect is half-maximal.
